Experimental data: US20220160767A1 (CHILDREN S NATIONAL MEDICAL CENTER, published 2022)

Target: T1, HLA-DRB1*11:01 (human, UniProt P01911 30-227; P01903 26-216)
T1 construct: whole, on cells; Class II molecule on irradiated, partially HLA-matched PHA-blasts; Only the DRB1 allele is printed; also called HLA-DR11
Experiment: restriction testing: IFN-γ ELISpot of CSTs with partially HLA-matched PHA-blasts pulsed with peptide (indirect read-out)

LRGHLRIAGHHLGRC (also called LRGHLRIAGHHLGRC) [Membrane peptide 37 (AA 145-160)]
binding result: binds
